B1: 5C2-1 (antibody, human IgG1, kappa, V domains shown)
VH: QVQLVQSGAEVKKPGASVKVSCKASGYTFNSYWMHWVRQAPGQGLEWMGRIHPRGIHTNYNQKFKGRVTLTVDTSTSTAYMELSSLRSEDTAVYYCAPSSSYAWAFAHWGQGTLVTVSS
VL: DIQMTQSPSSLSASVGDRVTITCRASQDVSTALAWYQQKPGKAPKLLIYWASTRHSGVPDRFSGSGSGTDFTLTISSLQPEDFATYYCQQHYRSPGTFGGGTKVEIKR
B2: 5C2-8 (antibody, human IgG1, kappa, V domains shown)
VH: QVQLVQSGAEVKKPGASVKVSCKASGYTFNSYLMHWVRQAPGMGLEWMGRIRPNYSDTNYNQKFKGRVTLTVDTSTSTAYMELSSLRSEDTAVYYCAPYGNNASGFSYWGQGTLVTVSS
VL: B1 VL with G96W
B3: 5C2-4 (antibody, human IgG1, kappa, V domains shown)
VH: B1 VH with N30T, S31R, R54T, G55D, I56S, H57V, S99D, S100V, S101N, W104R
VL: B1 VL with R93G, G96W
B4: 5C2-7 (antibody, human IgG1, kappa, V domains shown)
VH: B2 VH with N30T, L33W, R52H, N54I, S56R, G100V, N102Y, A103G, S104D, S107A
VL: B1 VL with S10T, S56I, Q89H, H91D, R93I, S94T, G96R
B5: 5C2-9 (antibody, human IgG1, kappa, V domains shown)
VH: QVQLVQSGAEVKKPGASVKVSCKASGQTFTNYLMHWVRQAPGQGLEWMGRIPLSDRDTNYNQKFKGRVTLTVDTSTSTAYMELSSLRSEDTAVYYCAPYGRSASGFSSWGQGTLVTVSS
VL: B1 VL with H91G, Y92S, R93S, S94T, G96L
B6: 5C2-2 (antibody, human IgG1, kappa, V domains shown)
VH: QVQLVQSGAEVKKPGASVKVSCKASGQTFTSYRMHWVRQAPGQGLEWMGRILPIRSDTNYNQKFKGRVTLTVDTSTSTAYMELSSLRSEDTAVYYCARDAGYGSLFAAWGQGTLVTVSS
VL: B1 VL with Y92D, R93S
B7: 5C2-5 (antibody, human IgG1, kappa, V domains shown)
VH: QVQLVQSGAEVKKPGASVKVSCKASGYTFGIYWMHWVRQAPGQGLEWMGRILPSNGYTNYNQKFKGRVTLTVDTSTSTAYMELSSLRSEDTAVYYCAPYGIYTRDFSHWGQGTLVTVSS
VL: B1 VL with H91R, Y92D, R93T, S94T, G96R
B8: 5C2-3 (antibody, human IgG1, kappa, V domains shown)
VH: QVQLVQSGAEVKKPGASVKVSCKASGYTFTSYWMHWVRQAPGQGLEWMGRIHPSDSDTNYNQKFKGRVTLTVDTSTSTAYMELSSLRSEDTAVYYCAPKGNYVVRFAYWGQGTLVTVSS
VL: DIVMTQSPSSLSASVGDRVTITCRASQGIRNDLGWYQQKPGKAPKLLIYAASSLQSGVPSRFSGSGSDTDFTLTISSLQPEDFATYYCLQDYNYPWTFGQGTKVDIKR
B9: 5C2-6 (antibody, human IgG1, kappa, V domains shown)
VH: B8 VH with K99Y, G100V, N101D, Y102L, V103E, V104S, R105G
VL: DIAMTQTPSSLSASIGDRVTIACRASQGISSALAWYQQKPGRTPKLLIFDASTLQSGVPSRFSGSGSGTDFTLTISSLQPEDFATYYCQQFNTYSSVTFGQGTRLEIKR
B10: 4G9-1 (antibody, human IgG1, kappa, V domains shown)
VH: QVQLVQSGAEVKKPGASVKVSCKASGYTFTTYGINWVRQATGQGLEWMGWINTYSGVPGYAQKFQGRVTMTLNTSISTAYMELSSLRSEDTAVYYCARGGRGIAYWGQGTLVTVSS
VL: DIQLTQSPSSLSASVGDRVTITCRASQGISNSLAWFQQKPGKVPKRLIYAASNLQSGVPSRFSGSGSGTEFTLTISSLQPEDFATYYCQQSYSTPYTFGQGTKLEIKR
B11: 4G9-3 (antibody, human IgG1, kappa, V domains shown)
VH: B10 VH with G102E, I103S
VL: EIVMTQSPATLSVSPGERATLSCRASQSIGTSLHWYQQKPGGAPRLLIKYASESITGIPARFSGSGSGTEFTLTISSLQSEDFAVYYCQQSNSWPYTFGQGTKLEIKR
B12: 4G9-5 (antibody, human IgG1, kappa, V domains shown)
VH: B10 VH with G100V, G102V, I103F, A104Y, Y105H
VL: B11 VL
B13: 4G9-9 (antibody, human IgG1, kappa, V domains shown)
VH: B10 VH with E46K, G100V, R101H, I103V, A104S
VL: B11 VL
B14: 4G9-8 (antibody, human IgG1, kappa, V domains shown)
VH: B10 VH with G99V, G100E, I103D
VL: EIVLTQSPSSLSASVGDRVTITCRASQDIRRDFGWYQQKPGLAPELLIYDASRLRSGVPSRFSGSGSGTLFTFTITNLQPEDFATYYCLQDYDFPRTFGQGTKVDIKR
B15: 4G9-10 (antibody, human IgG1, kappa, V domains shown)
VH: B10 VH with G100S, R101K, I103D
VL: DIVMTQSPSSLSASVGDRVTITCRASQSISTWLAWFQQKPGKAPKLLIYKASSLKSGVPSRFSGSGSGTEFTLTISSLQPDDFATYYCQQSYSTPWTFGQGTKLEIKR

Positions count from the first letter of the chain named.

One assay deals with hPD-1-HIS (human) (UniProt Q15116). As to the kind of experiment: ELISA, plate-coated PD-1 protein, protocol of Example 1.
Chain of hPD-1-HIS (human) (Q15116 25-167 limits assumed): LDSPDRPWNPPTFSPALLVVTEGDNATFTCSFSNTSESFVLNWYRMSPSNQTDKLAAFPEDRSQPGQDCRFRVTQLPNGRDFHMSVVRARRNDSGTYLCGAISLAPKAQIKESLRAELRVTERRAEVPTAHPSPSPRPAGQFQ
Turning to B1, the hPD-1-HIS Binding (OD 450) was determined as 0.791 OD 450. On the same count and under the same terms, the result for B2 reads 0.262 OD 450; that for B3, 0.312 OD 450.

The molecule B4 yielded a hPD-1-HIS Binding (OD 450) of 0.264 OD 450. The same measure, in the same setting: with B5 the figure was 0.255 OD 450; with B6, 0.395 OD 450. Still for that read-out and setting: the result for B7 reads 0.286 OD 450; that for B8, 0.345 OD 450; that for B9, 0.267 OD 450.

Another assay has the same target. As to the kind of experiment: ELISA, plate-coated PD-1 protein, anti-human IgG detection. A general note: In an ELISA, binding on a coated surface is turned into a signal by an enzyme label.
Consider B10, for which the hPD-1-HIS Binding (OD 450) was 0.874 OD 450. On the same count and under the same terms, with B11 the figure was 0.451 OD 450; with B12, 0.383 OD 450; with B13, 0.31 OD 450. In turn, B14 gave a hPD-1-HIS Binding (OD 450) of 0.346 OD 450. Same read-out and setting: with B15 the figure was 0.287 OD 450.

The record behind these values is US20250136692A1.
